{
  "source": "patent US20150031617A1",
  "about": "“USE OF THYMOSIN ALPHA FOR TREATMENT OF PURULENT RHINOSINUSITIS” (SCICLONE PHARMACEUTICALS, INC., priority 2012, published 2015)",
  "key": {"[1]": {"conditions": "cited from earlier work"}, "[2]": {"system": "monocytes and granulocytes of patients with purulent rhinosinusitis", "experiment": "monocyte and granulocyte polarization in vitro in patients with purulent rhinosinusitis", "assay_type": "cell-based, human", "conditions": "10 patients; thymalfasin, 0.1 mg/ml; FIG. 1", "experimental": "The results in 10 patients were evaluated. The monocyte and granulocyte polarizations in 10 patients were evaluated. Initially, 3 to 4 of the patients started with decreased polarization. […] (See, FIG. 1.) As a control, N-formylmethionyl-leucyl-phenylalanine (fMLP)-induced polarization of healthy donor monocytes. (See, FIG. 2.) Concentrations were TP-1, 1 mg/ml, thymalfasin, 0.1 mg/ml and fMLP, 10^−8M."}},
  "data": [
    {"substance": "(N-acetyl)-Ser-Asp-Ala-Ala-Val-Asp-Thr-Ser-Ser-Glu-Ile-Thr-Thr-Lys-Asp-Leu-Lys-Glu-Lys-Lys-Glu-Val-Val-Glu-Glu-Ala-Glu-Asn-OH (Ac-SDAAVDTSSEITTKDLKEKKEVVEEAEN-OH) [TA1]", "values": [
      {"measurement": "Peak plasma levels", "setting": "[1]; after injection of 3.2 mg of TA1 (about 40 μg/kg)", "result": "approximately 100 ng/ml"},
      {"measurement": "TA1 circulating in serum", "setting": "[1]; circulating serum level", "result": "0.1 to 1.0", "unit": "ng/mL"},
      {"measurement": "half-life in the circulation", "setting": "[1]; in the circulation", "result": "about 2 hours"},
      {"measurement": "monocyte and granulocyte polarization in vitro", "setting": "[2]", "result": "worked excellently in improving and restoring the polarization in vitro"}
    ]}
  ]
}
